# Source: US20260167721A1 (ABLEXIS, published 2026)
# Assays:
# [1] = target: T1, human CD3 (TCR/CD3 complex) on the cell surface (human, UniProt P07766 23-207; P09693 23-182; P04234 22-171; P20963 22-164); assay: flow cytometry, Pan-T cells, 1 ug/mL
# T1 construct: whole, on cells; also called CD3 on Pan-T cells; CD3 on Jurkat WT cells
# [2] = target: T1, human CD3 (TCR/CD3 complex) on the cell …; assay: flow cytometry, Pan-T cells, 10 ug/mL
# [3] = target: T1, human CD3 (TCR/CD3 complex) on the cell …; assay: flow cytometry, Jurkat WT cells, 1 ug/mL
# [4] = target: T1, human CD3 (TCR/CD3 complex) on the cell …; assay: flow cytometry, Jurkat WT cells, 10 ug/mL
# [5] = target: T1, human CD3 (TCR/CD3 complex) on the cell …; assay: flow cytometry, gMFI Jurkat WT over Jurkat TCRb KO, 1 ug/mL
# [6] = target: T1, human CD3 (TCR/CD3 complex) on the cell …; assay: flow cytometry, gMFI Jurkat WT over Jurkat TCRb KO, 10 ug/mL
# [7] = target: T2, recombinant CD3 proteins (UniProt P07766 23-126); assay: Octet BLI, recombinant CD3; Full R^2 0.997
# T2 construct: elsewhere it uses human CD3 E/D and E/G heterodimers
# T2 sequence (P07766 23-126): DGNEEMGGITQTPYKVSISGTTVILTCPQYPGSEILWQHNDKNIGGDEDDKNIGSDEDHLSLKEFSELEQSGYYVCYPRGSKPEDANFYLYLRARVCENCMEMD
# T1 sequence (P07766 23-207, chain 1 of 4): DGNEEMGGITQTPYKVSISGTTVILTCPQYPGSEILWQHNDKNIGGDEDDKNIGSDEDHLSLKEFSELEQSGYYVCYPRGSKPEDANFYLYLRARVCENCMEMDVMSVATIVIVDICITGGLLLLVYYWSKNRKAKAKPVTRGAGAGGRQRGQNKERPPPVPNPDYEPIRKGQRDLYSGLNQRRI
# T1 sequence (P09693 23-182, chain 2 of 4): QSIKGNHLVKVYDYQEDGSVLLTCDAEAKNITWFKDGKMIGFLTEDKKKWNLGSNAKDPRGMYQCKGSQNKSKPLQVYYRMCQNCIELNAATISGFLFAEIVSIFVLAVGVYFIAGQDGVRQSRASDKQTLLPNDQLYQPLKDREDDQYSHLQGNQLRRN
# T1 sequence (P04234 22-171, chain 3 of 4): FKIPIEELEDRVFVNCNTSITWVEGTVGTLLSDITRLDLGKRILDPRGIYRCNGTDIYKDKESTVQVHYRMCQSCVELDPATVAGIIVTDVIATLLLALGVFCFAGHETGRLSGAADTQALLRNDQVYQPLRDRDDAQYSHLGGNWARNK
# T1 sequence (P20963 22-164, chain 4 of 4): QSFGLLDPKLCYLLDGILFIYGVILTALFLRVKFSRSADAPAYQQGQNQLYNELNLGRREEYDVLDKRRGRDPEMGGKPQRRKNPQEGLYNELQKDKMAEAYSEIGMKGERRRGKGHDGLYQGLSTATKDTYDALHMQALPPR
% Positive [1] [%],gMFI [1] [gMFI],% Positive [2] [%],gMFI [2] [gMFI],gMFI [3] [gMFI],gMFI [4] [gMFI],Jurkat WT/KO (Fold) [5] [fold],Jurkat WT/KO (Fold) [6] [fold],Kd [7] [nM],koff [7] [s⁻¹],kon [7] [M⁻¹ s⁻¹],Binder
1.2,1770,0.7,1680,1650,1690,0.9,0.9,,,,"Gemtuzumab (antibody, V domains shown, also called anti-CD33 control) VH: EVQLVQSGAEVKKPGSSVKVSCKASGYTITDSNIHWVRQAPGQSLEWIGYIYPYNGGTDYNQKFKNRATLTVDNPTNTAYMELSSLRSEDTAFYYCVNGNPWLAYWGQGTLVTVSS VL: DIQLTQSPSTLSASVGDRVTITCRASESLDNYGIRFLTWFQQKPGKAPKLLMYAASNQGSGVPSRFSGSGSGTEFTLTISSLQPDDFATYYCQQTKEVPWSFGQGTKVEVKR"
99.5,475000,99.5,508000,57500,54200,13.1,12.9,,,,CD3 × CD33-BspAb44 (bispecific antibody) chain 1: EVQLVESGGGLVKPGGSLRLSCAASGFTFSRYSMNWVRQAPGKCLKWVSSISSSGSYKYYADSVKGRFTISRDNAKNSLYLQMNSLRAEDTAVYYCAREPPTLGMDYWGQGTLVTVSSGGGGSGGGGSGGGGSGGGGSNFMLTQPHSVSESPGKTVTISCTRSSGSIASNYVQWYQQRPGSSPTTVIYEDNQRPSGVPDRFSGSIDSSSNSASLTISGLKTEDEADYYCQSFDNSNRVFGCGTKLTVLDKTHTCPPCPAPEFEGGPSVFLFPPKPKDTLMISRTPEVTCVVVDVSHEDPEVKFNWYVDGVEVHNAKTKPREEQYNSTYRVVSVLTVLHQDWLNGKEYKCKVSNKALPASIEKTISKAKGQPREPQVYTLPPCREEMTKNQVSLWCLVKGFYPSDIAVEWESNGQPENNYKTTPPVLDSDGSFFLYSKLTVDKSRWQQGNVFSCSVMHEALHNHYTQKSLSLSPGK chain 2: EVQLVQSGAEVKKPGSSVKVSCKASGYTITDSNIHWVRQAPGQSLEWIGYIYPYNGGTDYNQKFKNRATLTVDNPTNTAYMELSSLRSEDTAFYYCVNGNPWLAYWGQGTLVTVSSASTKGPSVFPLAPSSKSTSGGTAALGCLVKDYFPEPVTVSWNSGALTSGVHTFPAVLQSSGLYSLSSVVTVPSSSLGTQTYICNVNHKPSNTKVDKRVEPKSCDKTHTCPPCPAPEFEGGPSVFLFPPKPKDTLMISRTPEVTCVVVDVSHEDPEVKFNWYVDGVEVHNAKTKPREEQYNSTYRVVSVLTVLHQDWLNGKEYKCKVSNKALPASIEKTISKAKGQPREPQVCTLPPSREEMTKNQVSLSCAVKGFYPSDIAVEWESNGQPENNYKTTPPVLDSDGSFFLVSKLTVDKSRWQQGNVFSCSVMHEALHNRFTQKSLSLSPGK chain 3: DIQLTQSPSTLSASVGDRVTITCRASESLDNYGIRFLTWFQQKPGKAPKLLMYAASNQGSGVPSRFSGSGSGTEFTLTISSLQPDDFATYYCQQTKEVPWSFGQGTKVEVKRTVAAPSVFIFPPSDEQLKSGTASVVCLLNNFYPREAKVQWKVDNALQSGNSQESVTEQDSKDSTYSLSSTLTLSKADYEKHKVYACEVTHQGLSSPVTKSFNRGEC
,,,,,,,,456,0.0829,182000,CD3 × CD33-BspAb79 (bispecific antibody) chain 1: QVQLQESGPGLVKPSETLSLTCTVSGGSISSYYWSWIRQPAGKCLEWIGRIYASGSTYYNPSLKSRVTMSVDTSKNQFSLKLSSVTAADTAVYYCAREKRSRLYFDYWGQGTLVTVSSGGGGSGGGGSGGGGSGGGGSNFMLTQPHSVSESPGKTVTISCTRSSGSIASNYVQWYQQRPGSSPTTVIYEDNQRPSGVPDRFSGSIDSSSNSASLTISGLKTEDEGDYYCQSYDRSNRVFGCGTKLTVLDKTHTCPPCPAPEFEGGPSVFLFPPKPKDTLMISRTPEVTCVVVDVSHEDPEVKFNWYVDGVEVHNAKTKPREEQYNSTYRVVSVLTVLHQDWLNGKEYKCKVSNKALPASIEKTISKAKGQPREPQVYTLPPCREEMTKNQVSLWCLVKGFYPSDIAVEWESNGQPENNYKTTPPVLDSDGSFFLYSKLTVDKSRWQQGNVFSCSVMHEALHNHYTQKSLSLSPGK chain 2: EVQLVQSGAEVKKPGSSVKVSCKASGYTITDSNIHWVRQAPGQSLEWIGYIYPYNGGTDYNQKFKNRATLTVDNPTNTAYMELSSLRSEDTAFYYCVNGNPWLAYWGQGTLVTVSSASTKGPSVFPLAPSSKSTSGGTAALGCLVKDYFPEPVTVSWNSGALTSGVHTFPAVLQSSGLYSLSSVVTVPSSSLGTQTYICNVNHKPSNTKVDKRVEPKSCDKTHTCPPCPAPEFEGGPSVFLFPPKPKDTLMISRTPEVTCVVVDVSHEDPEVKFNWYVDGVEVHNAKTKPREEQYNSTYRVVSVLTVLHQDWLNGKEYKCKVSNKALPASIEKTISKAKGQPREPQVCTLPPSREEMTKNQVSLSCAVKGFYPSDIAVEWESNGQPENNYKTTPPVLDSDGSFFLVSKLTVDKSRWQQGNVFSCSVMHEALHNRFTQKSLSLSPGK chain 3: DIQLTQSPSTLSASVGDRVTITCRASESLDNYGIRFLTWFQQKPGKAPKLLMYAASNQGSGVPSRFSGSGSGTEFTLTISSLQPDDFATYYCQQTKEVPWSFGQGTKVEVKRTVAAPSVFIFPPSDEQLKSGTASVVCLLNNFYPREAKVQWKVDNALQSGNSQESVTEQDSKDSTYSLSSTLTLSKADYEKHKVYACEVTHQGLSSPVTKSFNRGEC
,,,,,,,,163,0.0168,103000,CD3 × CD33-BspAb116 (bispecific antibody) chain 1: NFMLTQPHSVSESPGKTVTISCTRSSGSIASNYVQWYQQRPGSSPTTVIYEDNQRPSGVPDRFSGSIDSSSNSASLTISGLKTEDEAYYYCQSFDSSNRVFGCGTKLTVLGGGGSGGGGSGGGGSGGGGSQVQLQESGPGLVKPSQTLSLTCTVSGGSISSGGYYWSWIRQHPGKCLEWIGYIYYSGSTYYNPSLKSRVTISVDTSKDQFSLKLSSVTAADTAVYYCARERKTSLPFDIWGQGTMVTVSSDKTHTCPPCPAPEFEGGPSVFLFPPKPKDTLMISRTPEVTCVVVDVSHEDPEVKFNWYVDGVEVHNAKTKPREEQYNSTYRVVSVLTVLHQDWLNGKEYKCKVSNKALPASIEKTISKAKGQPREPQVYTLPPCREEMTKNQVSLWCLVKGFYPSDIAVEWESNGQPENNYKTTPPVLDSDGSFFLYSKLTVDKSRWQQGNVFSCSVMHEALHNHYTQKSLSLSPGK chain 2: EVQLVQSGAEVKKPGSSVKVSCKASGYTITDSNIHWVRQAPGQSLEWIGYIYPYNGGTDYNQKFKNRATLTVDNPTNTAYMELSSLRSEDTAFYYCVNGNPWLAYWGQGTLVTVSSASTKGPSVFPLAPSSKSTSGGTAALGCLVKDYFPEPVTVSWNSGALTSGVHTFPAVLQSSGLYSLSSVVTVPSSSLGTQTYICNVNHKPSNTKVDKRVEPKSCDKTHTCPPCPAPEFEGGPSVFLFPPKPKDTLMISRTPEVTCVVVDVSHEDPEVKFNWYVDGVEVHNAKTKPREEQYNSTYRVVSVLTVLHQDWLNGKEYKCKVSNKALPASIEKTISKAKGQPREPQVCTLPPSREEMTKNQVSLSCAVKGFYPSDIAVEWESNGQPENNYKTTPPVLDSDGSFFLVSKLTVDKSRWQQGNVFSCSVMHEALHNRFTQKSLSLSPGK chain 3: DIQLTQSPSTLSASVGDRVTITCRASESLDNYGIRFLTWFQQKPGKAPKLLMYAASNQGSGVPSRFSGSGSGTEFTLTISSLQPDDFATYYCQQTKEVPWSFGQGTKVEVKRTVAAPSVFIFPPSDEQLKSGTASVVCLLNNFYPREAKVQWKVDNALQSGNSQESVTEQDSKDSTYSLSSTLTLSKADYEKHKVYACEVTHQGLSSPVTKSFNRGEC
3.4,2870,82.2,12200,2260,5170,1.1,2.5,,,,CD3 × CD33-BspAb48 (bispecific antibody) chain 1: QVTLKESGPGILQPSQTLSLTCSFSGFSLSTFGMGVGWIRQPSGKCLEWLAHIWWDDDKYYNPALKSRLTISKDTSKNQVFLKIANVDTADTATYYCARLGYYPYWFFDVWGTGTTVTVSSGGGGSGGGGSGGGGSGGGGSNFMLTQPHSVSESPGKTVTIACTRSSGSIASNYVQWYQQRPGSSPTTVIYEDNQRPSGVPDRFSGSIDSSSNSASLTISGLKTEDEADYYCQSYDSSNQVFGCGTKLTVLDKTHTCPPCPAPEFEGGPSVFLFPPKPKDTLMISRTPEVTCVVVDVSHEDPEVKFNWYVDGVEVHNAKTKPREEQYNSTYRVVSVLTVLHQDWLNGKEYKCKVSNKALPASIEKTISKAKGQPREPQVYTLPPCREEMTKNQVSLWCLVKGFYPSDIAVEWESNGQPENNYKTTPPVLDSDGSFFLYSKLTVDKSRWQQGNVFSCSVMHEALHNHYTQKSLSLSPGK chain 2: EVQLVQSGAEVKKPGSSVKVSCKASGYTITDSNIHWVRQAPGQSLEWIGYIYPYNGGTDYNQKFKNRATLTVDNPTNTAYMELSSLRSEDTAFYYCVNGNPWLAYWGQGTLVTVSSASTKGPSVFPLAPSSKSTSGGTAALGCLVKDYFPEPVTVSWNSGALTSGVHTFPAVLQSSGLYSLSSVVTVPSSSLGTQTYICNVNHKPSNTKVDKRVEPKSCDKTHTCPPCPAPEFEGGPSVFLFPPKPKDTLMISRTPEVTCVVVDVSHEDPEVKFNWYVDGVEVHNAKTKPREEQYNSTYRVVSVLTVLHQDWLNGKEYKCKVSNKALPASIEKTISKAKGQPREPQVCTLPPSREEMTKNQVSLSCAVKGFYPSDIAVEWESNGQPENNYKTTPPVLDSDGSFFLVSKLTVDKSRWQQGNVFSCSVMHEALHNRFTQKSLSLSPGK chain 3: DIQLTQSPSTLSASVGDRVTITCRASESLDNYGIRFLTWFQQKPGKAPKLLMYAASNQGSGVPSRFSGSGSGTEFTLTISSLQPDDFATYYCQQTKEVPWSFGQGTKVEVKRTVAAPSVFIFPPSDEQLKSGTASVVCLLNNFYPREAKVQWKVDNALQSGNSQESVTEQDSKDSTYSLSSTLTLSKADYEKHKVYACEVTHQGLSSPVTKSFNRGEC
